Columns and labels:
[1] = system: influenza A group 1 and group 2 NAs; assay: Enzyme-linked lectin assay (ELLA) neuraminidase inhibition, influenza A NAs; assay type: biochemical, influenza A virus; conditions: for neuraminidase inhibition (NI) in ELLA: fetuin substrate, subtypes inhibited are named in the value
Description: Ninety six-well microtiter plates (Thermo Fisher) were coated with 100 μL/well fetuin (Sigma) at a concentration of 25 μg/mL in 1× coating buffer (KPL coating solution; SeraCare) at 4° C. overnight. The next day, the plates were washed three times with T-PBS and blocked in 200 μL blocking buffer (5% bovine serum albumin (BSA, Biomedicals) in PBS) at room temperature. On a separate 96-well plate virus was serially diluted 1:2 in PBS. Seventy-five μL of PBS was added to all wells and the plates incubated for 1.5 h on a shaker at room temperature. After blocking, the plates were washed three times with T-PBS, 100 μL of serially diluted virus was transferred well by well to the fetuin coated plates and the plates were incubated for 2 hours at 33° C. or 37° C. depending on the virus type. The plates were washed four times and 100 μL peanut agglutinin (PNA) conjugated to HRP at a concentration of 5 μg/mL was added to all wells. The plates were incubated in the dark for two hours, the plates washed four times and developed with 100 μL SigmaFast OPD. The reaction was stopped after 5 min with 50 μL 3M hydrochloric acid (Thermo Fisher) and the plates were read at a wavelength of 490 nm with a microtiter plate reader (Bio-Tek). The data were analyzed in Microsoft Excel and GraphPad Prism 7, and the 50% effective concentration (EC50) was calculated for each virus.
To perform neuraminidase inhibition assays, the microtiter plates were coated and blocked as described above. During the blocking of the fetuin coated plates the mAbs were diluted to a starting concentration of 30 μg/mL and serially diluted 1:2 in PBS in a separate 96-well plate. Seventy-five μL of virus diluted to 2× effective concentration 50 (EC50) was added to wells of the serially diluted mAbs and incubated for 1.5 h on a shaker. The fetuin coated plates were washed three times with T-PBS and the virus/mAb mixture was added to the plates and incubated for 2 hours at 33° C. or 37° C. The remainder of the assay was performed as described above. The data were analyzed in Microsoft Excel and GraphPad Prism 7, and the inhibitory concentration 50 (IC50) was calculated.

[2] = system: recombinant NA, group 1 NAs (N1, N4, N5 and N8) and group 2 NAs (N2, N3, N6, N7 and N9); assay type: binding, influenza A virus
[3] = system: virus expressing a group 1 neuraminidase (N4); set-up: species or system mice; conditions: mouse, in vivo
recombinant N2 NA = assay type: binding, influenza A virus
[4] = system: challenge viruses expressing N1, N2, N3, N5, N6, N7, N8, N9 NAs and influenza B virus NA; set-up: species or system mice; conditions: mouse, in vivo

Molecule	neuraminidase inhibition (NI) in ELLA [1]	binding / cross-reactivity to recombinant influenza A NA subtypes in ELISA [2]	weight loss [3]	binding to N2 NA (recombinant N2 NA)	protection against weight loss [4]	protection from lethality [4]	NA inhibition in ELLA ([1]; H3N2 strain A/Hong Kong/4801/2014)
1G01: human anti-NA monoclonal antibody expressed as IgG1; heavy chain variable region SEQ ID NO: 44, light chain variable region SEQ ID NO: 45 (antibody, listed as Homo sapiens, V domains shown, IgG1 constant regions) VH: EVQLVESGGRALRPGGSLRLSCAASGFKFDDYAMSWVRQVPGKGLEFVSGLNWNGDITAYTDSVKGRFTVSRDNAKNSLYLHINSPKPEDTALYYCARTSSWGDYTRGPEPKITWYFDLWGRGTLVTVSS VL: DIQLTQSPSFLSASVGDRITITCRASQGIDGYLAWYQQRPGKAPNLLIYAASLLQSGVPSRFSGSGYGTEFTLTISSLQPEDFATYYCQHLDSYPLFTFGPGTKVDIK	inhibited the activity of all A/group 2 and group 1 NAs	broadest binding activity that covered all group 1 NAs (N1, N4, N5 and N8) and group 2 NAs (N2, N3, N6, N7 and N9)	some transient weight loss	bound	solid protection against weight loss	full protection from lethality	–
1G01 Fab: antigen-binding fragment (Fab) of 1G01 used instead of the full antibody (antibody, left off: a dimerising Fc or GST) heavy: EVQLVESGGRALRPGGSLRLSCAASGFKFDDYAMSWVRQVPGKGLEFVSGLNWNGDITAYTDSVKGRFTVSRDNAKNSLYLHINSPKPEDTALYYCARTSSWGDYTRGPEPKITWYFDLWGRGTLVTVSS light: DIQLTQSPSFLSASVGDRITITCRASQGIDGYLAWYQQRPGKAPNLLIYAASLLQSGVPSRFSGSGYGTEFTLTISSLQPEDFATYYCQHLDSYPLFTFGPGTKVDIK	–	–	–	–	–	–	potent inhibition
1G04: human anti-NA monoclonal antibody expressed as IgG1; heavy chain variable region SEQ ID NO: 40, light chain variable region SEQ ID NO: 41 (antibody, listed as Homo sapiens, V domains shown, IgG1 constant regions) VH: EVQLVESGGRVVRPGGSLRLSCAASGFTFDDYGMSWVRQAPGKGLEFVSGLNWNGDITAFTDSVKGRFTISRDNAKSSLYLQMNSLRADDTAFYYCARVRTWGEYTTREEPIHSWYFDLWGRGTLVTVSS VL: DIQLTQSPSFLSASVGDRVTITCRASQDISSFLAWYQQKPGNAPKVLIYAASLLQSGVPSRFSGSGSGTDFTLTISSLQPEDFATYYCQQLNSYPLFTFGPGTKVDIK	inhibited N2, N3 and certain N1 NAs	some cross-reactivity to N3 and N6 (group 2), and N1, N5 and N8 (group 1)	–	bound	–	–	–
1E01: human anti-NA monoclonal antibody expressed as IgG1; heavy chain variable region SEQ ID NO: 42, light chain variable region SEQ ID NO: 43 (antibody, listed as Homo sapiens, V domains shown, IgG1 constant regions) VH: EVQLVESGGRVVRPGGSLRLSCAASGFTFDDYGMSWVRQPPGKGLEFVSGLNWNGDITAFTDSVKGRFTISRDNVKSSLYLQMNSLRADDTAFYYCARVRTWGDYTTGEEIINSWYFDLWGRGTLVTVSS VL: DIQLTQSPSFLSASVGDRVTITCRASQDISSYLAWYQQKPGNAPKLLIYAASLLQSGVPSRFSAFGSGTEFTLTISSLQPEDFATYYCQHLKSYPLFTFGPGTKVDIK	inhibited group 2 NAs, N1	even broader binding pattern that included group 2 NAs N3, N6, N7 and N9, group 1 NAs N1, N5 and N8	–	bound	–	–	–

From patent US12509503B2, “Pan-neuraminidase inhibiting antibodies” (Washington University, priority 2019, dated 2025)
